To fix the notation:
B1: 5-HT1AR-EGFP [human] / OX1R-Rluc [human] (parent)
chain 1: MDVLSPGQGNNTTSPPAPFETGGNTTGISDVTVSYQVITSLLLGTLIFCAVLGNACVVAAIALERSLQNVANYLIGSLAVTDLMVSVLVLPMAALYQVLNKWTLGQVTCDLFIALDVLCCTSSILHLCAIALDRYWAITDPIDYVNKRTPRRAAALISLTWLIGFLISIPPMLGWRTPEDRSDPDACTISKDHGYTIYSTFGAFYIPLLLMLVLYGRIFRAARFRIRKTVKKVEKTGADTRHGASPAPQPKKSVNGESGSRNWRLGVESKAGGALCANGAVRQGDDGAALEVIEVHRVGNSKEHLPLPSEAGPTPCAPASFERKNERNAEAKRKMALARERKTVKTLGIIMGTFILCWLPFFIVALVLPFCESSCHMPTLLGAIINWLGYSNSLLNPVIYAYFNKDFQNAFKKIIKCKFCRQ
chain 2: MEPSATPGAQMGVPPGSREPSPVPPDYEDEFLRYLWRDYLYPKQYEWVLIAAYVAVFVVALVGNTLVCLAVWRNHHMRTVTNYFIVNLSLADVLVTAICLPASLLVDITESWLFGHALCKVIPYLQAVSVSVAVLTLSFIALDRWYAICHPLLFKSTARRARGSILGIWAVSLAIMVPQAAVMECSSVLPELANRTRLFSVCDERWADDLYPKIYHSCFFIVTYLAPLGLMAMAYFQIFRKLWGRQIPGTTSALVRNWKRPSDQLGDLEQGLSGEPQPRARAFLAEVKQMRARRKTAKMLMVVLLVFALCYLPISVLNVLKRVFGMFRQASDREAVYACFTFSHWLVYANSAANPIIYNFLSGKFREQFKAAFSCCLPGLGPCGSLKAPSPRSSASHKSLSLQSRCSISKISEHVVLTSVTTVLP
B2: OX1R-EGFP [human] / 5-HT1AR-Rluc [human] (parent)
chain 1: B1 chain 2
chain 2: B1 chain 1

The record followed here is publication PMC8956632.

Variants of B1 are the subject of the first experiment. Nature of the experiment: BRET. The note with it: with OX1R-Rluc [human]; HEK293 cells, basal (no agonist); parent: 0.26; read off a plot. For orientation: Bioluminescence resonance energy transfer reports proximity on the nanometre scale.
With chain 1 Y198A, the response was determined as 0.23.
Still for that read-out and setting: the figure for chain 1 W175A is 0.26.
The same measure, in the same setting: the figure for chain 1 R151A is 0.16.

In the next experiment the parent is B2. Nature of the experiment: BRET. The note with it: with 5-HT1AR-Rluc [human]; HEK293 cells, basal (no agonist); parent: 0.27; read off a plot.
As to chain 1 L225A, the response stood at 0.23.
Take chain 1 M176A: the response worked out at 0.15.
chain 1 R160A: the response turned out to be 0.27.
As to chain 1 L230A, the response worked out at 0.21.
